# Assay results as given in the nanobody polyreactivity screen of Harvey et al. (2022).
# Test: yeast display, Sf9 membrane polyspecificity reagent, FACS + sequencing; frameworks hold sequencing errors
# Summary of the method: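 Using colony PCR, genes from sorted yeast display clones were amplified, then sequenced on MiSeq at 2 × 250 and filtered by CDR length. The clones had been stained with 10% biotinylated, detergent-solubilized Sf9 membrane reagent for 1 hour at 4 °C and sorted by FACS into low and high (top ~1%) gates on anti-HA and streptavidin fluorescence. Polyreactivity labels come from the gate of origin.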
row,Sequence,polyreactivity (PSR sort gate)
1,QVQLVESGGGLVQAGGSLRLSCAASGSTSGKYAMGWYRQAPGKERELVAGITKGGGGTYYADSVKGRFTISRDNAKNTVYLQMNSLKPEDTAVYYCAAGTLYSLYFGRHGYWGQGTQVTVSS,low polyreactivity
2,QVQLVESGGGLVQAGGSLRLSCAASGSTSGLYAMGWYRQAPGKERELVATISLSGGSTYYADSVKGRFTISRDNAKNTVYLQMNSLKPEDTAVYYCNTDKYKWNYGSTYRMDYWGQGTQVTVSS,low polyreactivity
3,QVQLVESGGGLVQAGGSLRLSCAASGSTSGSNAMGWYRQAPGKERELVAGISYSTADTNYADSVKGRFTISRDNAKNTVYLQMNSLKPEDTAVYYCATDPFGIASRHDDYWGQGTQVTVSS,low polyreactivity
4,QVQLVESGGGLVQAGGSLRLSCAASGSTSGSYGMGWYRQAPGKERELVAAIRISGDSTYYADSVKGRFTISRDNAKNTVYLQMNSLKPEDTAVYYCAAEAFFWYYGWYDYWGQGTQVTVSS,high polyreactivity
5,QVQLVESGGGLVQAGGSLRLSCAASGSTSHQYAMGSYRQAPGKERELVAAISSRAGSTYYADSVKGRFTISRDNAKNTVYLQMNSLKPEDTAVYYCAAEADSWKWGYDYWGQGTQVTVSS,low polyreactivity
6,QVQLVESGGGLVQAGGSLRLSCAASGSTSIYYTMGWYRQAPGKERELVAAITRGGRTYYADSVKGRFTISRDNAKNTVYLQMNSLKPEDTAVYYCAATTYLVWGYNYWGQGTQVTVSS,low polyreactivity
7,QVQLVESGGGLVQAGGSLRLSCAASGSTSKVYAMGWSRQAPGKERELVAAITFSGGSTYADSVKGRFTISRDNAKNTVYLQMNSLKPEDTAVYYCAVEVPYSWWWLVDYWGQGTLVTVSS,high polyreactivity
8,QVQLVESGGGLVQAGGSLRLSCAASGSTSLYYAMGWYRPAPGKEREFVAAITWSGGSTYYADSVKGRFTISRDNAKNTVYLQMNSLKPEDTAVYYCAARSYGYSAGYYWGQGTQVTVSS,high polyreactivity
9,QVQLVESGGGLVQAGGSLRLSCAASGSTSPGYAMGWYRQAPWKERELVAAITFRGTRTYYADSVKGRFTISRDNSKNTVYLQMNSLKPEDTEVYYCNVVGYGPNRGRVDYWGQGTLVTVSS,high polyreactivity
10,QVQLVESGGGLVQAGGSLRLSCAASGSTSQPYDMGWYRQAPGTERELVASITNGGSTNYADSVKGRFTISRDNAKNTVYLQMNSLNPEDTAVDYCATRNGYSGTYGYWGQGTQVTVSS,low polyreactivity
11,QVQLVESGGGLVQAGGSLRLSCAASGSTSQVNDMGWYRQAPGKERELVAAISSTGDRTYYADSVKGRFTISRDNAKNTVYLQMNSLKPEDTAVYYCNADLTSYYEEDERNDDDYWGQGTQVTVSS,low polyreactivity
12,QVQLVESGGGLVQAGGSLRLSCAASGSTSRIYGMGWYRQAPGTDRELVAAITRSGNTYADSVKGRFTISRDNANNTDYLQMNSLKPDDTAVYYCATAWRFTYFGYEYWGQGTQVTVSS,high polyreactivity
13,QVQLVESGGGLVQAGGSLRLSCAASGSTSRSAMGWYRQAPGKERELVASITRGGSTYYADSVKGRFTISRDNAKNTVYLQMNSLKPEDTAVYYCAARFPQHNYWAMDYWGQGTQVTVSS,high polyreactivity
14,QVQLVESGGGLVQAGGSLRLSCAASGSTSSYNAMGWYRQAPGKERELVAAINSGDNTYYADSVKGRFTISRDNAKNTVYLQMNSLKPDDTAVYYCNKVTRNFNYDYWGQGTQVTVSS,low polyreactivity
15,QVQLVESGGGLVQAGGSLRLSCAASGSTSVDYTMGWYRQAPGKERELVAAIDYNGDSTYYADSVKGRFTISRDNAKNTVYLQMNSLKPEDTAVYYCAADYLSFVVVKLYGYWGQGTQVTVSS,low polyreactivity
16,QVQLVESGGGLVQAGGSLRLSCAASGSTSVVNPMGWSRPAPGTERELVAAISWSGGSTYYADSVKGRFTISRDNAKNTVYLQMNSLKPEDTAVYYCAKRRVYYGSRYNYWGQGTQVTVSS,high polyreactivity
17,QVQLVESGGGLVQAGGSLRLSCAASGSTSVYAMGWYRQAPGKERELVAAITRGGSTYYADSVKGRFTISRDNAKNTVYLQMNRLKPEDTAVYYCAVETYYSIFDIYDYWGQGTQVTVSS,low polyreactivity
